Experimental data reported in paper PMC10114367 (Fluids and Barriers of the CNS, 2023).
“Also recorded” adds a separate entry of the source.

Assays:
[1] = Distribution of ^125I-insulin and ^125I-S961 following ICV delivery; assay type: in vivo, CD-1 mice
Experimental: The scalp was reflected in anesthetized mice and a hole was drilled 1 mm lateral and 0.2 mm posterior to the Bregma. […] Brains were removed between 2 and 60 min later and dissected into regions. […] Weighed brain regions and serum were counted in a gamma counter (Wizard2, Perkin Elmer, Waltham, MA, USA). […] The %Inj was divided by the weight of the region (g/region) or the volume serum measured (ul/serum) to calculate the %Inj/g and %Inj/ml. Pilot studies were performed to identify ventricular injection using this method.

[2] = cited from earlier work
[3] = tested on: insulin transport across the blood-brain barrier (BBB); assay: ^125I-insulin blood-to-brain BBB pharmacokinetics by multiple-time regression analysis (MTRA) after CNS treatment; assay type: in vivo, CD-1 mice; settings: for Ki of ^125I-insulin (unidirectional influx blood to brain) / Vi of ^125I-insulin (reversible vascular binding): male mice; for Ki of ^125I-insulin (unidirectional influx blood to brain): MTRA slope ± SE; for Vi of ^125I-insulin (reversible vascular binding): MTRA y-intercept
Experimental: For all radioactive studies, the right jugular vein and left carotid artery were exposed. […] The whole brain, olfactory bulb, and in some cases the hypothalamus were removed and weighed. […] Each mouse yielded a single serum sample and time-matched brain sample. Exposure time was calculated from the formula:1 [drawing 1] , where Cp is the level of radioactivity (CPM) in serum at time (t). […] Vi (μl/g) is the level of solute in rapid, reversible equilibrium between plasma and brain. […] The linear portion of the relation between the delta B/S ratio versus exposure time is represented in the figures and was used to calculate the Ki (μl/g-min) with its standard error term, and the y-intercept determined representing the Vi(μl/g). Regression analyses and other statistical analyses were performed with Prism 9.0 (GraphPad Softward Inc., San Diego, CA, USA). For all MTRA pharmacokinetic studies, the slope of the linear regression lines (Ki), reported with their correlation coefficients (r), and y-intercepts (Vi) were compared statistically using Prism equivalent to an analysis of covariance (ANCOVA). For these studies, the individual data points are presented in the representative Figures. For the regional studies, the regional B/S levels for each sex were reported with their standard error terms and analyzed by a two-way analysis of variance (ANOVA) followed by Tukey's post hoc test when appropriate.

[4] = tested on: blood-brain barrier (BBB); assay: Whole brain vascular space / BBB permeability to ^99mTc-albumin following CNS treatment; assay type: in vivo, CD-1 mice
Experimental: For all radioactive studies, the right jugular vein and left carotid artery were exposed. […] Mice were injected IV with the radioactive tracer 10 min later. […] The whole brain, olfactory bulb, and in some cases the hypothalamus were removed and weighed. […] Each mouse yielded a single serum sample and time-matched brain sample. Exposure time was calculated from the formula:1 [drawing 1] , where Am is the level of radioactivity (CPM) per gram of brain tissue at time (t), Cpt is the level of radioactivity (CPM) per ml arterial serum at time t, Ki (μl/g-min) is the steady-state rate of unidirectional solute influx from blood to brain. Vi (μl/g) is the level of solute in rapid, reversible equilibrium between plasma and brain. Subtracting ratios for ^99mTc-albumin from the corresponding ^125I-insulin brain/serum (B/S) ratio yielded a delta B/S ratio, which corrects the B/S ratio for ^125I-insulin for vascular space. The linear portion of the relation between the delta B/S ratio versus exposure time is represented in the figures and was used to calculate the Ki (μl/g-min) with its standard error term, and the y-intercept determined representing the Vi(μl/g).

[5] = tested on: regional brain vascular space; assay: Regional ^99mTc-albumin brain/serum ratios (vascular space) following CNS treatment; assay type: in vivo, CD-1 mice; settings: olfactory bulb; male; 30 min after 1 µg IN insulin
Experimental: For the regional studies, brain and serum were collected at a single time point post central nervous system (CNS) manipulation. For IN studies following ICV delivery, S961 (1 µg in PB) or vehicle was given ICV, and IN ^125I-insulin was immediately administered. 30 min later, brain and serum were collected. […] For IV studies following ICV delivery, S961 (1 µg in PB) or vehicle was given ICV and 10 min later, IV ^125I-insulin and ^99mTc-albumin was injected. For the IV studies, brain and serum were collected 5 min later. Olfactory bulb (OB) and the whole brain dissected into 10 regions were weighed: striatum (St), frontal cortex (FC), hypothalamus (Hy), hippocampus (HC), thalamus (Th), parietal cortex (PC), occipital cortex (OC), cerebellum (CB), midbrain (MB), and pons-medulla (PM). Whole brain (WB) is the summed value from individual regions. The levels of radioactivity in serum (50 µl) and brain samples were counted in a gamma counter (Wizard2, Perkin Elmer, Waltham, MA, USA). %Inj/g for IN distribution and Delta B/S ratios following IV administration were calculated as described above. ^99mTc-albumin B/S ratios are also presented to identify changes in regional vascular space following CNS manipulation.

[6] = Immunoactive serum insulin measurement (MSD mouse insulin kit) after ICV treatment; assay type: in vivo, CD-1 mice; settings: male, kit cross reacts with human insulin
Experimental: Whole blood was centrifuged at 3,200xg for 10 min. Serum was collected, aliquoted, and frozen at -80 °C until measurement. […] This kit cross reacts with human insulin.

[7] = target: insulin transport across the blood-brain barrier (BBB); settings: per mouse; cited from earlier work
Experimental: The average blood volume of a mouse is about 77–80 ml/kg. Given that our male CD-1 mice are approximately 30 g at the time of study, these mice have around 2.4 ml of blood. […] Therefore, while th ...

[8] = olfactory bulb, 1 µg ICV insulin 10 min before IV ^125I-insulin
[9] = olfactory bulb, 1 µg IN insulin 30 min before IV ^125I-insulin
[10] = whole brain, 1 µg ICV insulin 10 min before IV ^125I-insulin

^125I-insulin: human insulin radioactively labeled with ^125I; tracer for BBB transport
amount of ^125I-insulin entering the blood following ICV delivery ([1]; mouse, in vivo): < 3 %Inj/ml
time by which tracer is distributed throughout the brain after ICV delivery ([1]; mouse, in vivo): ≤ 5 min
time to appearance in serum after ICV injection ([1]; mouse, in vivo): ≤ 5 min
^125I-insulin present in whole brain after IN delivery ([2]; mouse, in vivo): approximately 0.13 %Inj/g
time of peak brain level after IN administration ([2]; mouse, in vivo): about 30 min

human insulin
expected amount per gram of brain tissue after 1 µg ICV administration ([1]; calculated from %Inj/g at 10 min and 1 µg ICV dose): approximately 605 ng per gram of brain tissue
level in whole brain after ICV delivery ([1]; radiolabelled tracer ICV, whole brain at 10 min): approximately 60.5 %Inj/g
Ki of ^125I-insulin (unidirectional influx blood to brain) ([3]; hypothalamus, 1 µg IN insulin 30 min before IV ^125I-insulin, regression ns): 0.57 ± 0.88 µL/g/min
slowing of ^125I-insulin blood-to-brain transport rate vs vehicle ([3]; hypothalamus, male, 1 µg IN insulin, 30 min): about 85%
Ki of ^125I-insulin (unidirectional influx blood to brain) [3, 8]: ~ 0.3 µl/g-min
Ki of ^125I-insulin (unidirectional influx blood to brain) ([3]; olfactory bulb, 1 µg ICV insulin 10 min before IV ^125I-insulin, listed as Insulin): 0.35 ± 0.16 µL/g/min
Vi of ^125I-insulin (reversible vascular binding) [3, 8]: 14.6 ± 2.2 µL/g
Ki of ^125I-insulin (unidirectional influx blood to brain) [3, 9]: 2.74 ± 0.52 µL/g/min
Vi of ^125I-insulin (reversible vascular binding) [3, 9]: 9.7 ± 3.9 µL/g
decrease of ^125I-insulin blood-to-brain transport rate vs vehicle ([3]; olfactory bulb, male, 1 µg ICV insulin, 10 min): about 82%
Ki of ^125I-insulin (unidirectional influx blood to brain) [3, 10]: ~ 0.3 µl/g-min
Ki of ^125I-insulin (unidirectional influx blood to brain) ([3]; whole brain, 1 µg ICV insulin 10 min before IV ^125I-insulin, listed as Insulin): 0.30 ± 0.11 µL/g/min
Vi of ^125I-insulin (reversible vascular binding) [3, 10]: 7.9 ± 1.5 µL/g
effect on whole brain vascular space or BBB leakage measured with ^99mTc-albumin ([4]; 1 µg ICV or IN insulin (males), 1 µg ICV S961 (males, females)): no effect
increase in ^99mTc-albumin vs vehicle [5]: 43%
change in serum insulin level vs vehicle ([6]; 30 min after 1 µg ICV human insulin): nearly doubled; also recorded: two-fold increase
rise in serum insulin level ([6]; 30 min after 1 µg human insulin ICV): 5 ng/mL
IV bolus of unlabeled insulin necessary to reduce the ^125I-insulin BBB Ki by 50% [7]: 121 ng
insulin present in hypothalamus after IN delivery ([2]; hypothalamus, 30 min after IN insulin delivery, male CD-1 mice): 0.23 %Inj/g

^99mTc-albumin: bovine serum albumin labeled with Technetium-99m; marker for vascular space
^99mTc-albumin whole brain B/S ratio ([4]; mouse, in vivo, iv): 8 to 12 µL/g
